Experimental findings from patent US20190071493A1 (SCHOLAR ROCK, published 2019) are described below.

The target of assay [1] is rat LTBP1-proTGFβ1 complex (rat, UniProt Q00918 339-1712; P17246 30-390). In words: Octet (BLI) binding assay as in Table 6. On the procedure: a. Dilute both antibodies to 50 μg/mL in 300 μl of 1x buffer in row A. b. Add 200 μl of buffer to the rest of each column c. Transfer 100 μl down the column to make 3-fold dilutions
A general note: Biolayer interferometry detects binding as a change in optical thickness at a sensor tip.

Assay [2] addresses T1, proTGFβ3 (Homo sapiens (Human), UniProt P10600 24-412).
T1 sequence: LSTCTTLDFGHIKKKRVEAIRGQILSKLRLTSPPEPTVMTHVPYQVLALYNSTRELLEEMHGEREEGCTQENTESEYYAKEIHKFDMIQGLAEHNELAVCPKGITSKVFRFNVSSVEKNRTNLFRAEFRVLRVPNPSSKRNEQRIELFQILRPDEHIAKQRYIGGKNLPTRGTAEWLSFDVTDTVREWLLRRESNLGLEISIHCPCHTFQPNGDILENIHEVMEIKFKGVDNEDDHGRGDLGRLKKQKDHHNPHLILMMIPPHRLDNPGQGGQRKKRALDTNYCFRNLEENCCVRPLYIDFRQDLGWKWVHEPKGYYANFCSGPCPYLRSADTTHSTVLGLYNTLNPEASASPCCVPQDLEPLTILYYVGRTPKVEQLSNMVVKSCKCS
In words: ELISA. In general terms: In an ELISA, binding on a coated surface is turned into a signal by an enzyme label.

The target in assay [3] is T2, proTGFβ2 (Chlorocebus aethiops (Green monkey) …, UniProt P61811 20-414).
T2 sequence: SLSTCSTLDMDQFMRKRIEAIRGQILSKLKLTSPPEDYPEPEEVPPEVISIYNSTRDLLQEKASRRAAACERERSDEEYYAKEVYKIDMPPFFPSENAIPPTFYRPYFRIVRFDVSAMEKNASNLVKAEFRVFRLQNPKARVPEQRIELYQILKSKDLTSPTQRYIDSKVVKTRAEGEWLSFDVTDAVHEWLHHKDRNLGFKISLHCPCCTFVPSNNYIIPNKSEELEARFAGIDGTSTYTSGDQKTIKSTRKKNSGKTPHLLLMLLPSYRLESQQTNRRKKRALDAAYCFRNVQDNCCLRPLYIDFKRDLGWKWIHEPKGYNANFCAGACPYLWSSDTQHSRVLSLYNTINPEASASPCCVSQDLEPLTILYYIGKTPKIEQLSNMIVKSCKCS
In words: ELISA.

rat LTBP1-proTGFβ1 complex, sequence (Q00918 339-1712, chain 1 of 2): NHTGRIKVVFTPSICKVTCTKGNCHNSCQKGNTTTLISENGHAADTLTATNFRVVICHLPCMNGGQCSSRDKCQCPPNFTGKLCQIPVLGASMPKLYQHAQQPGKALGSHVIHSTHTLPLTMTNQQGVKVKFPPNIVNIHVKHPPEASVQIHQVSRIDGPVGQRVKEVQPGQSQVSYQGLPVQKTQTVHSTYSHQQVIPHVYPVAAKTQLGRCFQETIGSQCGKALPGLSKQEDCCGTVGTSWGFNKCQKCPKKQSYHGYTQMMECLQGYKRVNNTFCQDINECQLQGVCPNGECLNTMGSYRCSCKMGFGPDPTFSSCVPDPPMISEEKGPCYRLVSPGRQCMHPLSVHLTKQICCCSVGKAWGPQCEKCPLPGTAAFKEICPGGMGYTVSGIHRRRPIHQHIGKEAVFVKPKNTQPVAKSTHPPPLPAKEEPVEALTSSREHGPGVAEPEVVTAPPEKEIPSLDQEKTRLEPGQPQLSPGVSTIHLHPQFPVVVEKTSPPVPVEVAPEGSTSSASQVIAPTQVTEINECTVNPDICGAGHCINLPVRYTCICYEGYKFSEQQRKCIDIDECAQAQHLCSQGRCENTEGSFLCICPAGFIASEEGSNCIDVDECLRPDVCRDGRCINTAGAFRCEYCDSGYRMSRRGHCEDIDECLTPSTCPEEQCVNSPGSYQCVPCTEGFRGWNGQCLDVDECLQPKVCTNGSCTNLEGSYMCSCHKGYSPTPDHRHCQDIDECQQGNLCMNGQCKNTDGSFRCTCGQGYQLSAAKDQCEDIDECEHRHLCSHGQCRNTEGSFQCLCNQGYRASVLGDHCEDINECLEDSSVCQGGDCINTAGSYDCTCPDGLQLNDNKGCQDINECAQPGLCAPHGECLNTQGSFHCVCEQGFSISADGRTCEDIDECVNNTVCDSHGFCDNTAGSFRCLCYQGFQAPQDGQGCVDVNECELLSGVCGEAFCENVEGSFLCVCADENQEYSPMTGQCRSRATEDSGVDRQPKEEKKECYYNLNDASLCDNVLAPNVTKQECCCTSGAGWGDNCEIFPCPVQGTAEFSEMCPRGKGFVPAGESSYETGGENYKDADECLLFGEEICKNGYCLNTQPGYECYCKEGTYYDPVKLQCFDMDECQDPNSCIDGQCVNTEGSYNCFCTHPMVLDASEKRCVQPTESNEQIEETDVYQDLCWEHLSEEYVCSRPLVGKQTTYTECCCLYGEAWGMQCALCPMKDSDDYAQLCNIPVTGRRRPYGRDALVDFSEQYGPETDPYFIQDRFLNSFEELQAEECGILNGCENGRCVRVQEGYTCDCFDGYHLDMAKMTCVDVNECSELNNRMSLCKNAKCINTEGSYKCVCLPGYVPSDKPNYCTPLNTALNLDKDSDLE
rat LTBP1-proTGFβ1 complex, sequence (P17246 30-390, chain 2 of 2): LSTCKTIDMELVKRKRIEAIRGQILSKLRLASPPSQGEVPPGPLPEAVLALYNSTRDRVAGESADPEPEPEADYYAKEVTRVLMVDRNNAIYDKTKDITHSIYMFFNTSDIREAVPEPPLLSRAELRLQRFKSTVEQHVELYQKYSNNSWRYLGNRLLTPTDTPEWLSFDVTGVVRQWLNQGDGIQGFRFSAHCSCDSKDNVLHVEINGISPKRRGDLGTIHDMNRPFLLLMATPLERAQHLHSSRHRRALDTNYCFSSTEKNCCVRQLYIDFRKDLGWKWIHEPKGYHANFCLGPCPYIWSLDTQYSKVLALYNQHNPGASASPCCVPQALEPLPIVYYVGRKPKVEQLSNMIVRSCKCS

B1: Ab1 (antibody, human IgG4 S228P, lambda, V domains shown)
VH: EVQLVESGGGLVQPGRSLRLSCAASGFTFSSYGMHWVRQAPGKGLEWVAVISYDGSNKYYADSVKGRFTISRDNSKNTLYLQMNSLRAEDTAVYYCARDIRPYGDYSAAFDIWGQGTLVTVSS
VL: NFMLTQPHSVSESPGKTVTISCTGSSGSIASNYVQWYQQRPGSAPSIVIFEDNQRPSGAPDRFSGSIDSSSNSASLTISGLKTEDEADYYCQSYDSSNHGGVFGGGTQLTVLG
notes: also called antibody Ab1; clone Ab1
Turning to B1, the binding result in assay [1], in assay [2] and in assay [3] was “no binding” in each case.

B2: Ab2 (antibody, V domains shown)
VH: EVQLVQSGAEMKKPGESLKISCKGSGYNFASDWIGWVRQTPGKGLEWMGVIYPGDSDTRYSASFQGQVTISADKSINTAYLQWSSLKASDTAMYYCASAAGIAAAGHVTAFDIWGQGTMVTVSS
VL: not shown
notes: also called antibody Ab2; clone Ab2
On to B2, for which the binding result in assay [2] and in assay [3] was “no binding” each time.
